Measurements as given in the RNAGym collection of RNA variant scans (doi:10.1073/pnas.2313332121).

B1: TPR t1 (parent)
chain: GACCAAUCUGCCCUCAGAGCUCGAGAACAUCUUCGGAUGCAGAGGAGGCAGGCUUCGGUGGCGCGAUAGCGCCAACGUCCUCAACCUCCAAUGCAUCCCACCACAUGAUGAUGCCUGAAGAGCCUUGGUUUUUUG

Variants of: B1
Test: polymerase ribozyme fitness, log enrichment relative to wild type (log ratio); higher = more active; in vitro selection for triplet polymerase activity
In short: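 Only genotypes with ≥10 input reads and ≥1 read per output were kept after Illumina sequencing of input and output libraries. These libraries were PCR-built, transcribed mutants of each subunit of a heterodimeric triplet polymerase ribozyme, each put through one triplicate in vitro selection round with frozen incubation at −7 °C, gel excision of extended constructs, streptavidin-bead capture and RT-PCR. Fitness is a logarithmic ratio of genotype enrichment to wild-type enrichment, from inverse-variance-weighted replicate averages, with the logarithm in base 2.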

In order of rising “polymerase ribozyme fitness (log ratio)” value:
1. C31U A46C G47U C98A G120C  -7.6
2. C31A C115U  -7.47
3. C31G G44U G52U C62U C85U C115U G117A  -7.35
4. A29G G61A G93A C102G G117C  -7.25
5. C31G A50G G60A C79A C124A  -7.23
6. C31G  -7.22
7. U30A C56A C70U  -7.2
8. A29U G35A C56U C72U U96A C98G C115G  -7.16
9. U30G C102G U112G  -7.15
10. A29U A43G U54C G63A G117C  -7.13
11. C31G C56A G60U U109A  -7.12
12. A29U U30G G57U G63C C72U G120A  -7.09
13. C31A C98U  -7.02
14. C31G G61C  -7.02
15. C31A C40U A50U G60A C101A U106A C115U A119G  -6.82
16. C31U C40U G45A  -6.8
17. U32C G60U A66G C89G  -6.79
18. C31G G48U G65A C86G A100C G120C  -6.59
19. U30G A43U A91U G113U  -6.55
20. U32A G39U G45C C64G C114A  -6.51
21. U30G U32C  -6.32
22. C31A C72A C104G  -6.29
23. C31G C98G G110U  -6.25
24. C31U A43C  -6.22
25. C31G U33A C64A G120C  -6.19
26. C31A C40G A46G G63A A111U  -6.15
27. U32A C40G C56A A84U  -6.15
28. C31G G51U C97A C124U  -6.07
29. U32A C73A C97U  -6.06
30. U32A G42A U54C U116C G128A  -6.04
31. C31U U59C G120U G127C  -5.99
32. U30G C49G G113C  -5.95
33. C31G G120C  -5.91
34. C31A  -5.84
35. C31G C53A G60A C94U U106A  -5.77
36. U32A G47U C72U A83U  -5.74
37. A29U G48A U92C C101U C114A  -5.72
38. C31G G120A  -5.69
39. C31U C70U C72U  -5.69
40. A29U G44A U59A A103C U112C  -5.66
41. U32G A41G C70U C89G C114U  -5.66
42. C31G C85U C123U  -5.56
43. U32A A41U  -5.52
44. U32A C56G G77U C99A C123U U125G  -5.41
45. U32A G44U U55A  -5.23
46. C31U C62U  -5.22
47. C31A A95U  -5.15
48. U30C G42U G60A  -5.14
49. U32G A37G G113C  -5.08
50. U32A A43G C88U G93A C114G  -5.05
51. U32C A90G C97A U130G  -5.05
52. C31U U54A  -5.03
53. A29U C56G C85A  -4.99
54. U30C G48C C64U U81A U87A C124A  -4.9
55. U30C G47U C53U U54A U133A  -4.89
56. C31U G47U U112C G120C  -4.82
57. A29G G48U G93C G110U C123U  -4.77
58. C31U C40U  -4.75
59. U32C G69C G128C  -4.73
60. A29U A46G C88U C97G  -4.71
61. A29U G42C A66G A119U  -4.64
62. C31G C80A A105G G113A  -4.57
63. A29U C98A U109G  -4.46
64. C31A C56U  -4.45
65. C31A G77C U112C  -4.36
66. A29G G69C G77C  -4.34
67. A29U G47U C62U  -4.34
68. C31U  -4.29
69. A29U C40U C49A A68G U106A  -4.25
70. C31U A118U C123U  -4.23
71. U32C C73U C85U C98U  -4.19
72. U32C C62U C73U C85U C98U  -4.16
73. A29U G127A  -4.12
74. U32G A41G C70U C114U  -4.09
75. U32C G113A U126G U133C  -4.07
76. U30C C40U U55G  -4.05
77. C31U G36C G61A  -4.05
78. U32A G57U  -4.02
79. A29U A50C C98U  -3.99
80. A29U C49G C101G C124G  -3.93
81. A29U C89U A119U  -3.93
82. U32C U81G  -3.83
83. U32C G48U G69A  -3.8
84. A29U C72U C98U A111C  -3.77
85. U30C G48U C73A C82A  -3.73
86. U30C C101U A111C  -3.68
87. A29U G61A C82G U116C U125A  -3.67
88. U30C C97U  -3.64
89. C31U C124U  -3.64
90. A29U A43G G61U G113A C123A U126A U134C  -3.47
91. C31U G48A C73U U106G  -3.4
92. U32C G71C C79G U81C G113A  -3.36
93. C31U G69U U78C A118G  -3.16
94. U32A G120C  -3.07
95. U32C C73A C85G  -3.02
96. A29U C40A G52C G110U  -3.01
97. A29U C56G A66U  -3
98. A29U A43U U78C U112A  -2.84
99. A29U A66C  -2.83
100. A29G G71U G110A  -2.82
101. A29U A37U C40U G71C  -2.78
102. A29G G45U C64U  -2.76
103. A29U A83G C86U  -2.72
104. U32C A50G C79U C88U C114A G122A  -2.69
105. U32C C62A C82G G120C  -2.66
106. U30C G63A  -2.6
107. A29U G63U  -2.58
108. U32C U55G C102A  -2.56
109. A29U A46G U125A  -2.44
110. A29G G61A C89A  -2.41
111. A29U C40U G60C U131A  -2.41
112. A29G U55G G63A U131C U133G  -2.37
113. U30C C88U  -2.37
114. U32C C79G U81C G113A  -2.36
115. A29U C62G U106A  -2.35
116. A29U G58A C115U  -2.3
117. U30C C72A  -2.24
118. U32C C40U C86G  -2.2
119. A29U A75U A83G U112G U133C  -2.19
120. A29U C72U  -2.19
121. A29U G52A G113A  -2.09
122. A29G G71A G120U U132A  -2.06
123. A29G G44U  -2.04
124. A29U G71U  -1.99
125. A29G G63U G120C  -1.96
126. A29U U96C  -1.87
127. A29G G60C U131A  -1.85
128. A29U C72U C104U  -1.81
129. A29U U78C  -1.79
130. U32C C80U A83U C123G U130G  -1.77
131. U32C C49U A95C U133A  -1.67
132. U32C C56A C80U  -1.66
133. A29G G120U U132A  -1.63
134. A29U C115A  -1.59
135. A29G U59G  -1.48
136. A29G U32C A50U  -1.45
137. A29U G61A  -1.45
138. U32C G48C  -1.44
139. A29U C123A  -1.43
140. A29G G60A  -1.42
141. A29G G60C  -1.31
142. U32C A43U C123A  -1.31
143. A29U C62U  -1.3
144. U32C U116C  -1.17
145. A29U U59G G120C  -1.14
146. U32C G52A U78C C101A  -1.13
147. A29U U112G U133C  -1.1
148. A29G G69U A95G  -1
149. U32C G44U G60A  -0.98
150. A29G U132C  -0.924
151. A29U G47C C73G U109A  -0.853
152. U32C C79U U106C  -0.788
153. A29G G120U  -0.745
154. U32C G52A G61A U125A  -0.743
155. A29U A83C C124A  -0.511
156. C31U G57C U106A  -0.497
157. A29U C124U  -0.47
158. A29U C94A A111U  -0.272
159. U32C C53A C101A G120A  -0.18
160. U32C A84U  -0.174
161. U32C C49A  -0.089
162. A29U G69U U81C A100U C124A  0.115
163. U32C C64U  0.123
164. U32C C104U U112G  0.174
165. C31U C56A C73G U106A C124A  0.239
166. U32C C124G  1.48
167. U32C G120C  1.83
